What was measured:
Assay in all cases: BLI
[1] = target: T1, Avi-tagged, biotinylated h14-3-3ß_(nY130) (human, UniProt P31946 1-246, 3-nitrotyrosine at 130; biotin on the N-terminal Avi tag)
T1 chain: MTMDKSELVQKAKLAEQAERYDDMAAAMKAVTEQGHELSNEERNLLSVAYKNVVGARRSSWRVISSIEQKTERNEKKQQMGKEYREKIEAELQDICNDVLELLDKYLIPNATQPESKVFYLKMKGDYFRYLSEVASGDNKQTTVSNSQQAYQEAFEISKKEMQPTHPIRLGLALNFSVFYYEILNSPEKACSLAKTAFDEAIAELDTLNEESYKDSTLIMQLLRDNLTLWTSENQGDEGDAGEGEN

[2] = target: T2, Avi-tagged, biotinylated h14-3-3ß_(nY213) (human, UniProt P31946 1-246, 3-nitrotyrosine at 213; biotin on the N-terminal Avi tag)
T2 chain: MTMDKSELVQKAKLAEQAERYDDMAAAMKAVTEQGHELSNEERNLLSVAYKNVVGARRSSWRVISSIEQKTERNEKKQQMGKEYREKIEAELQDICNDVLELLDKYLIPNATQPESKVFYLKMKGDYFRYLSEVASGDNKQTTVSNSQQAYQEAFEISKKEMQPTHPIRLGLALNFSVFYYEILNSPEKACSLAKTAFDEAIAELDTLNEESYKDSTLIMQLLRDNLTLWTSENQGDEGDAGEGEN

[3] = target: T3, Avi-tagged, biotinylated h14-3-3ß WT (human, UniProt P31946 1-239, biotin on the N-terminal Avi tag)
T3 chain: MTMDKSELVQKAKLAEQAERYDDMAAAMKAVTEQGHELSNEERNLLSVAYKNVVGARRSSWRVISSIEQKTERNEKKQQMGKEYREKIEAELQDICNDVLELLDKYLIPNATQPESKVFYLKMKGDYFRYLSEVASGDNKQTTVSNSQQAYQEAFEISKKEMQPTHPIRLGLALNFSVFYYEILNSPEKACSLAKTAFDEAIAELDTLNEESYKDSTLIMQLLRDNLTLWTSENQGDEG

B1: Nb-G5 (C115S) (VHH)
VHH: QVQLQESGGGLVQPGGSLRLSCAASKNIANFDSMAWYRRSPGKERDLVARLYSDGGTNYEDSVKGRFNISTDIEKNTVYLQMNNLKLEDTARYYCRADLGLFDTSEFPGQGTQVTVSS
- Kd [1]: 100 nM
- Kd [2]: 104 nM
- Kd [3]: 91 nM
